{"source": "patent US20210230599", "about": "“STEM-LOOP COMPOSITIONS AND METHODS FOR INHIBITING INTERLEUKIN-8” (VITRISA THERAPEUTICS, INC., published 2021)", "key": {"[1]": {"molecular_target": "T1, Interleukin-8 (IL8, CXCL8), C-terminal His-tagged (Homo sapiens, UniProt P10145 SEQ:1-72)", "assay": "inhibition; inhibition of IL8 binding to CXCR1 cells, protein limited; neutrophil migration 2 nM", "conditions": "tags: C-terminal His (Sino Biological); stem-loop", "experimental": "(§1) CXCR1 overexpressing cells were used to confirm that aptamers could block IL8 binding to its cognate receptor, CXCR1, in a functional setting. Briefly, CXCR1-overexpressing cells were plated in a 96 well plate and seeded overnight. Serially diluted aptamers and 5 nM IL8 were mixed in cell culture media and applied to cells for 2 hours at 37° C. Media was aspirated, and cells were washed 3× with PBS for 5 minutes. Cells were lysed in Ultra HiBlock Buffer (Perkin Elmer) with gentle agitation. IL8 levels were determined using Ultra TR-FRET (Perkin Elmer)."}, "[2]": {"molecular_target": "T1, Interleukin-8 (IL8, CXCL8), C-terminal …", "assay": "competition; competition TR-FRET; affinity within error of unpegylated parent; parent given as Aptamer 38 and as Aptamer 3", "conditions": "tags: C-terminal His (Sino Biological); stem-loop", "experimental": "(§2) To better understand the sequence requirements and to confirm the stem structures of members of the Aptamer 3 family as determined from sequence covariation analysis from both the primary and secondary (degenerate) selections, a series of variants which included mutations and deletions to the predicted stems were synthesized and screened (Table 24). Activity of each of these variants were tested using a time resolved competition TR-FRET assay in which the labeled parent Aptamer 3 was competed with increasing concentrations of unlabeled variants for binding to IL8 (FIG. 14). Briefly, 2-fold dilutions of thermally equilibrated aptamers were made in TR-FRET Buffer (50 mM MOPS, pH 7.4, 125 mM NaCl, 5 mM KCl, 50 μM CHAPS, 0.1 mg/mL BSA, 1 mM CaCl₂, and 1 mM MgCl₂). 5 μL of aptamer or control solution was added to 5 μl mix of 10 nM C-terminal His-tagged-IL8, 60 nM ALEXA FLUOR® 647-labeled Aptamer, and 5 nM anti-His-Eu (Perkin Elmer) in a black wall low volume 384 well plate (Greiner). For control, 5 μl of 1000-fold excess of unlabeled parent aptamer or 5 μl TR-FRET buffer alone was added to the mix of ALEXA FLUOR® 647-labeled aptamer, His-IL8, and anti-His-Eu. The plate was covered with a plate seal and subsequently incubated in the dark for 1 hour at room temperature. The plate was read on a Biotek CYTATION™ 5 plate reader. […]"}, "[3]": {"molecular_target": "T1, Interleukin-8 (IL8, CXCL8), C-terminal …", "assay": "competition; competition TR-FRET; S1 disrupted", "conditions": "tags: C-terminal 6xHis (Sino Biological)", "experimental": "as §2, with “Activity” for “To better understand the sequence requirements and to confirm the stem structures of members of the Aptamer 3 family as determined from sequence covariation analysis from both the primary and secondary (degenerate) selections, a series of variants which included mutations and deletions to the predicted stems were synthesized and screened (Table 24). Activity”\n(§3) To better understand the sequence requirements and confirm the stem structures of members of the Aptamer 8 family as determined from sequence covariation analysis from both the primary and secondary (degenerate) selections, a series of variants which included mutations and deletions to the predicted stems (Tables 45 and 46) were synthesized and screened. […]"}, "[4]": {"molecular_target": "T1, Interleukin-8 (IL8, CXCL8), C-terminal …", "assay": "inhibition; inhibition of IL8 binding to CXCR1 cells, 5 nM IL8, protein limited; neutrophil migration 3 nM (Table 35)", "conditions": "tags: C-terminal His (Sino Biological); stem-loop", "experimental": "as §1"}, "[5]": {"molecular_target": "T1, Interleukin-8 (IL8, CXCL8), C-terminal …", "assay": "competition; competition TR-FRET; U13A", "conditions": "tags: C-terminal 6xHis (Sino Biological)", "experimental": "as §2, with “Activity” for “To better understand the sequence requirements and to confirm the stem structures of members of the Aptamer 3 family as determined from sequence covariation analysis from both the primary and secondary (degenerate) selections, a series of variants which included mutations and deletions to the predicted stems were synthesized and screened (Table 24). Activity”\nas §3"}}, "data": [{"binder": "GGCGACGGUAGAUUAUGGGCAGUGUGACCGCGCC (ssRNA, 2'-F G; 2'-OMe A,C,U; 5' C6NH2; 3' idT)", "note": "[Aptamer 147]", "values": [{"measurement": "IC50", "setting": "[1]", "value": 3, "unit": "nM"}]}, {"binder": "GAUGACGGUAGAUUACGGGUAGAGUGACCGCAUC (ssRNA, 2'-F G; 2'-OMe A,C,U; 5' 40 kDa PEG via C6NH2; 3' idT)", "note": "[Aptamer P01]", "values": [{"measurement": "binding result", "setting": "[2]", "value": "binds"}]}, {"binder": "CAAUGGGAAAUGUGAGAUGGGUUGCCG (ssRNA, 2'-F G, 2'-OMe A/C/U, 5' C6NH2, 3' idT)", "note": "[Aptamer 214]", "values": [{"measurement": "binding signal", "setting": "[3]", "value": "> 10", "unit": "fold worse than Aptamer 8"}]}, {"binder": "UGAUGACGGUAGAUUACGGGUAGAGUGACCGCAUCU (ssRNA, 2'-F G; 2'-OMe A,C,U; 5' C6NH2; 3' idT)", "note": "[Aptamer 3]", "values": [{"measurement": "IC50", "setting": "[4]", "value": 3, "unit": "nM"}]}, {"binder": "CGGUGGGAAAAGUGAGAUGGGUUGCCG (ssRNA, 2'-F G, 2'-OMe A/C/U, 5' C6NH2, 3' idT)", "note": "[Aptamer 61]", "values": [{"measurement": "binding result", "setting": "[5]", "value": "binds"}]}]}
